Assay results from patent US7919104B2, “Functional epitopes of Streptococcus pneumoniae PsaA antigen and uses thereof” (priority 2005, dated 2011).
Where “and” joins values, the source holds several entries; their conditions need not be identical. Equal entries are not always repeated.

Legend:
Detroit 562 cells [1] = experiment: Adherence of rPsaA- or peptide-coated fluospheres (beads) to Detroit 562 cells; type: cell-based, human; settings: for mean adherence of coated fluospheres (mean FU±SE): 3,100±500 fluospheres per well, 2 hour incubation; for mean adherence signal (n=6): 2600 fluospheres/well; for mean adherence (% CV): batch 6, dilution 1:100, 2,600 fluospheres
Procedure: (§1) Carboxylate-modified fluorospheres (Molecular Probes™, […]) coated with either recombinant PsaA (rPsaA) or PsaA synthetic peptide (P4) were evaluated for their adherence to Detroit 562 NP cells. Four different batches of PsaA beads were generated by varying the concentration of the protein solution used to coat the beads (0.9 mg/ml, 0.53 mg/ml, 5.3 μg/ml and 0.53 μg/ml). P4 and Glycine control beads were generated by using a peptide solution (0.9 mg/ml). Protein concentrations were confirmed by the Bradford test (Sigma). PsaA and peptide beads were compared at similar inocula (1640±210 beads per well) in adherence and adherence competition assays (measured as mean fluorescent units (FU±SE)).
Recombinant PsaA protein or synthetic peptides were covalently bound to carboxylate-modified FluoSpheres (Molecular Probes, Eugene, Oreg.) (505/515 nm range, yellow, 1 μm in diameter). […] The 2% fluosphere stock was vortexed for 2 minutes at full speed. A 250-μl aliquot was sonicated for 5 minutes to break clumps. The sonicated fluospheres were washed 3 times by centrifugation at 10,000 rpm for 10 minutes in 250 μl MES buffer, pH 6.0 (Molecular Probes). The negative charge in the carboxylate-modified fluospheres was activated by adding 50 μl of EDAC solution (100 mg/ml, Molecular Probes) to the washed fluospheres resuspended in 200 μl MES. The fluospheres were incubated for 30 minutes RT with gentle rotation. A 250-μl volume of rPsaA (1 mg/ml) or peptide (2 mg/ml) resuspended in MES buffer was added to each fluosphere pellet. Suboptimal concentrations of rPsaA (900, 530, 5.3 and 0.53 μg/ml) were also used to generate partially coated fluospheres. Peptides were dissolved as 1 mg in 50 μl of 10% acetic acid followed by addition of 450 μl of MES buffer, pH 6.0. The 500-μl fluosphere suspension was incubated in the dark over night at room temperature with horizontal rotation (150 rpm). The remaining reactive sites were blocked by addition of a 50-μl volume of 1 M solution of glycine, followed by a-30-minute incubation at room temperature with horizontal rotation. The fluosphere suspension was then washed with 500 μl PBS, 50 mM, pH 7.2-7.4 three times by centrifugation at 10,000 rpm for 10 minutes. The first supernatant of the first wash was saved for protein determinations using the microtiter microdilution method of Bradford (Bio-Rad Laboratories, Calif.). The labeled fluosphere pellet was resuspended in 500 μl of PBS, 50 mM, pH 7.2-7.4. Labeled fluospheres were stored in the dark in 100-μl aliquots at 4° C. for up to 4 months. The peptides were stored in powder form at 4° C. under Dryerite desiccant. The resuspended peptides were stored at 4° C. for 6 weeks and for long term storage at −70° C. Fluospheres were counted by limiting dilution using a fluorometer (FLX-600, BioTek) with 485/520 nm excitation/emission wavelength and comparison to a calibration curve previously generated against hemacytometer counts.
Confluent monolayers of Detroit 562 cells grown in 96-well tissue culture plates for 6 days were washed once with 130 μl/well of PBS buffer+0.5% BSA (Sigma cat #A2153, Fraction V purified by alcohol precipitation). The entire outer perimeter of the microtiter plate was not used for adherence assays due to edge effect and lack of confluent growth in these wells. An 80-μl volume per well of PBS buffer+1% BSA and 20 μl per well of diluted fluosphere suspension (to yield ˜3100±500 fluospheres in a 20-μl volume) were added to the washed monolayers. The diluted fluosphere suspension was sonicated for 3 minutes prior to addition to the center of the wells. […] The sides of the plates were then tapped gently to mix. […] Following incubation, plates were washed 5 times with 130 μL/well of PBS+0.5% BSA. The liquid was removed after each wash with a multi-channel aspirator (Costar) and moderate vacuum. The plate was allowed to dry before reading in the fluorometer (485/520 nm). […]

Detroit 562 cells [2] = experiment: Competitive inhibition of adherence of rPsaA-coated fluospheres to Detroit 562 cells; type: cell-based, human; settings: for percent reduction in adherence of rPsaA-coated beads: rPsaA-coated beads 0.9 mg/ml batch, ~1,640 beads per well
Procedure: as §1
(§2) Homologous competitive inhibitions with 0.5 to 10 μg per well of rPsaA protein or 5 to 20 μg per well of each peptide were performed to determine the specificity of the adherence for rPsaA-coated fluospheres or for each of the three peptide-coated fluospheres. Heterologous competitive inhibitions with each peptide (10 μg per well) were performed to determine which peptide blocked the adherence of whole PsaA-coated fluospheres to the Detroit 562 cells. Absorption of PsaA-specific antibodies was performed by incubation (2 hours at ambient room temperature with rotation, 100 rpm) of 500 μl (1:8 dilution) of the serum 7051 with nitrocellulose strips (2.5×0.5 cm), previously impregnated with rPsaA protein (1.8 mg/ml) and allowed to dry at 37° C. for 1 hour. Strips were replaced every 2 hours for a total of 3 changes. All antibody absorptions were performed in PBS (10 mM, pH 7.2) supplemented with 1% (weight/volume) BSA as a non-specific blocker. Immunoglobulin G (IgG) concentrations (μg/ml) were measured as previously described (Tharpe, Romero-Steiner) after each absorption step to monitor the decline of anti-PsaA antibodies.

Detroit 562 cells [3] = experiment: Homologous competitive inhibition of adherence of rPsaA- or peptide-coated fluospheres to Detroit 562 cells; type: cell-based, human; settings: for percent reduction in adherence of P4-coated beads: ~1,640 beads per well
Procedure: as §1, §2

[4] = tested on: LEC-5 and NEO fibroblast cell lines; experiment: Growth of fibroblasts with P4 treated cell supernatant; type: cell-based; settings: supernatant of P4 treated cells with higher FGFbasic, different concentrations
Procedure: 2 fibroblast cell lines, LEC-5 and NEO, were used. These cells were grown in a 96 well titer plates until they become confluent (˜6 days). To this, the P4 treated cell supernatant that had higher concentration of FGFbasic was added at different concentrations and the growth was monitored fluormetrically with the help of a fluorometric metabolic indicator.

[5] = homologous competitor 5.0 μg/well
[6] = homologous competitor 10 μg/well

Molecule: LFVESSVKRRPMKTVSQDTNIPIYAQIF [P4, non-branched synthetic peptide, PsaA amino acid residues 251 to 278 with DD changed to KR]
- mean adherence of coated fluospheres (mean FU±SE) (Detroit 562 cells [1]): 20,317±448 FU
- adherence of P4-coated beads (FU±SE) (Detroit 562 cells [1]; beads coated with 0.9 mg/ml peptide solution, 1640±210 beads per well): 19,340 FU
- inhibition of the binding of PsaA protein to Detroit 562 cells (Detroit 562 cells [2]): ≥ 95%
- percent reduction in adherence of rPsaA-coated beads (Detroit 562 cells [2]; competitor 5.0 μg/well): 23% and 18.5%
- percent reduction in adherence of rPsaA-coated beads (Detroit 562 cells [2]; competitor 10 μg/well): 57.6%
- percent reduction in adherence of rPsaA-coated beads (Detroit 562 cells [2]; competitor 20 μg/well): 95% and 95.9%
- inhibition of rPsaA-fluosphere adherence, heterologous competition (Detroit 562 cells [2]; peptide 10 μg/well): 57.6%
- inhibition of rPsaA-fluosphere adherence, heterologous competition (Detroit 562 cells [2]; peptide 20 μg/well (6.2×10^−2 mM)): 95.9%
- percent reduction in adherence of P4-coated beads (Detroit 562 cells [3]; competitor 5.0 μg/well): 89% and 89.4%
- percent reduction in adherence of P4-coated beads (Detroit 562 cells [3]; competitor 10 μg/well): 88% and 87.6%
- percent reduction in adherence of P4-coated beads (Detroit 562 cells [3]; competitor 20 μg/well): 89% and 88.9%
- percent reduction in adherence of homologous coated fluospheres (Detroit 562 cells [3]; [5]): 89.4%
- percent reduction in adherence of homologous coated fluospheres (Detroit 562 cells [3]; [6]): 87.6%
- percent reduction in adherence of homologous coated fluospheres (Detroit 562 cells [3]; homologous competitor 20 μg/well): 88.9%
- growth of fibroblasts (fluorometric metabolic indicator) [4]: enhancement in the growth

B1: rPsaA: purified recombinant pneumococcal surface adhesin A, non-lipidated, donated by Aventis-Pasteur (protein)
chain: CASGKKDTTSGQKLKVVATNSIIADITKNIAGDKIDLHSIVPIGQDPHEYEPLPEDVKKTSEADLIFYNGINLETGGNAWFTKLVENAKKTENKDYFAVSDGVDVIYLEGQNEKGKEDPHAWLNLENGIIFAKNIAKQLSAKDPNNKEFYEKNLKEYTDKLDKLDKESKDKFNKIPAEKKLIVTSEGAFKYFSKAYGVPSAYIWEINTEEEGTPEQIKTLVEKLRQTKVPSLFVESSVDDRPMKTVSQDTNIPIYAQIFTDSIAEQGKEGDSYYSMMKYNLDKIAEGLAK
- mean adherence signal (n=6) (Detroit 562 cells [1]; 20 min incubation): 2,315 FU
- mean adherence signal (n=6) (Detroit 562 cells [1]; 140 min incubation (plateau starts)): 16,597 FU
- mean adherence signal (n=6) (Detroit 562 cells [1]; 180 min incubation): 17,498 FU
- mean adherence of coated fluospheres (mean FU±SE) (Detroit 562 cells [1]): 44,195±2,648 FU
- mean adherence (% CV) (Detroit 562 cells [1]; day 1 after labeling): 30,105 FU
- mean adherence (% CV) (Detroit 562 cells [1]; day 60 after labeling): 30,595 FU
- adherence of PsaA beads (FU±SE) (Detroit 562 cells [1]; beads coated with 0.53 μg/ml rPsaA, 1640±210 beads per well): 5,892 FU
- adherence of PsaA beads (FU±SE) (Detroit 562 cells [1]; beads coated with 5.3 μg/ml rPsaA, 1640±210 beads per well): 12,788 FU
- adherence of PsaA beads (FU±SE) (Detroit 562 cells [1]; beads coated with 0.53 mg/ml rPsaA, 1640±210 beads per well): 16,748 FU
- adherence of PsaA beads (FU±SE) (Detroit 562 cells [1]; beads coated with 0.9 mg/ml rPsaA, 1640±210 beads per well): 47,875 FU
- inhibition of the adherence of PsaA-coated fluospheres, cold chase (Detroit 562 cells [2]; non-fluorescent spheres coated with PsaA protein): up to 31%
- reduction of adherence of rPsaA fluospheres by whole recombinant protein (Detroit 562 cells [3]; 0.5 to 10 μg/well): unable to significantly reduce
- reduction of adherence of rPsaA-coated fluospheres (Detroit 562 cells [3]; additional concentrations 0.125 to 10.0 μg/well vs 3 μg/well): did not result in any further reduction
- percent reduction in adherence of homologous coated fluospheres (Detroit 562 cells [3]; homologous competitor 0.5 μg/well): −5.2%
- percent reduction in adherence of homologous coated fluospheres (Detroit 562 cells [3]; homologous competitor 1.0 μg/well): 9.8%
- percent reduction in adherence of homologous coated fluospheres (Detroit 562 cells [3]; homologous competitor 2.0 μg/well): 17.0%
- percent reduction in adherence of homologous coated fluospheres (Detroit 562 cells [3]; [5]): 13.7%
- percent reduction in adherence of homologous coated fluospheres (Detroit 562 cells [3]; [6]): 11.4%
